Laboratory results: patent US5866114A, “Crystallization of M-CSFα” (Chiron Corporation, priority 1995, dated 1999)

Assays:
NFS-60 cells = assay: M-CSF dependent NFS-60 bioassay (MTT readout, compared to M-CSF standard); type: cell-based
Experimental: Fractionated products were analyzed on reducing SDS-PAGE and stained with Coomassie, according to the method of Laemmli, Nature […] 227:680-685 (1970). Biological activity was determined using the M-CSF dependent NFS-60 bioassay (See Example 10 below). Antibody neutralization experiments were carried out by pre-incubating approximately 5,000 units of M-CSF dimer with varying dilutions of the neutralizing M-CSF 5H410 Mab (made to refolded E. coli CΔ150 M-CSFα dimer) prior to bioassay. (Halenbeck et al, Bio/Technology 7:710 (1989)
The purified mutein dimers were subjected to bioassay using NFS-60 cells which is an M-CSF dependent cell line which forms colonies in the presence of active M-CSF. Standards and purified mutein samples were serially diluted 1:2 in RPMI media (10% fetal bovine serum) in a 50 microliter volume in 96-well microtiter plates. 50 microliters NFS-60 cells (ATCC NO. CRL 1838), maintained in 4000U/ml M-CSF, washed 2×, and diluted to a concentration of 1×10^5 cell/ml, were added to each sample well. Plates were incubated at 37° C., 5% CO2 for 44 h. 5 mg/ml MTT dye was added to each sample and incubation continued for 4 h. 20% SDS was added to each sample. The plates were wrapped in foil and left overnight. The absorbance of each sample was read at 570 nm and compared to a standard of known M-CSF concentration.

[1] = test system: cell surface M-CSF receptor (NFS60 cell M-CSF receptors); assay: Radioligand displacement of 125I-M-CSF from NFS-60 cell M-CSF receptors (NFS-60 receptor competition assay); type: binding; conditions: for IC50: 4° C., 20 hours, 300,000 NFS-60 cells, read-out: IC50 (concentration required to inhibit 50% of labeled M-CSF binding to the cells); for M-CSF receptor-binding ability: compared to parental M-CSFα; for fold decrease in binding affinity: relative to M-CSFα NΔ3CΔ158
Experimental: FIG. 7 illustrates the competitive binding of M-CSF and M-CSF muteins to NFS60 cell M-CSF receptors.
The purified heterodimer was submitted to the NFS60 cell based bioassay described in Example 8. The calculated specific activity was 2.9×10^6 U/mg which correlated to a 35-fold reduction as compared to the activity of the parental M-CSF heterodimer described in Example 10. The relative binding affinity to cell surface M-CSF receptor was measured by radioligand displacement in which the displacement of ^125 I-M-CSF from an M-CSF receptor by an M-CSF mutein was measured using methods well known in the art. In brief, the following were added in a final volume of 100 μl in each well of a 96-well cell culture plate: approximately 80,000 cpm of purified recombinant human M-CSF labeled with ^125 I (using Iodobeads as described by the manufacturer, Pierce, Rockford, Ill.), 300,000 NFS-60 cells that had been washed and then grown for 18 hours in growth medium minus the normal maintenance level of M-CSF, plus unlabeled M-CSF that had been serially diluted in the same medium. The plates were incubated at 4° C. for 20 hours and the cells were collected on glass-fiber filters. Maximum binding was measured in the absence of unlabeled M-CSF and non-specific binding was measured in the presence of 1000-fold greater concentration of unlabeled M-CSF (compared to labeled M-CSF). The concentration of M-CSF required to inhibit 50% of the labeled M-CSF binding to the cells (IC50) was used to determine differences in affinity. Results are expressed as percent displacement of radioactive M-CSF versus mutein concentration (FIG. 7).

[2] = Bioactivity after diethylpyrocarbonate (DEPC) modification of histidines; conditions: 1:100 DEPC:histidine ratio

B1: 158/221F heterodimer: one chain of short clone (amino acid 4 to 158) and one chain of long clone 221F (protein, UniProt P09603 33-554, looked up, variant C157S C159S)
Macrophage colony-stimulating …: EEVSEYCSHMIGSGHLQSLQRLIDSQMETSCQITFEFVDQEQLKDPVCYLKKAFLLVQDIMEDTMRFRDNTPNAIAIVQLQELSLRLKSCFTKDYEEHDKACVRTFYETPLQLLEKVKNVFNETKNLLDKDWNIFSKNCNNSFAECSSQDVVTKPDSNSLYPKAIPSSDPASVSPHQPLAPSMAPVAGLTWEDSEGTEGSSLLPGEQPLHTVDPGSAKQRPPRSTCQSFEPPETPVVKDSTIGGSPQPRPSVGAFNPGMEDILDSAMGTNWVPEEASGEASEIPVPQGTELSPSRPGGGSMQTEPARPSNFLSASSPLPASAKGQQPADVTGTALPRVGPVRPTGQDWNHTPQKTDHPSALLRDPPEPGSPRISSLRPQGLSNPSTLSAQPQLSRSHSSGSVLPLGELEGRRSTRDRRSPAEPEGGPASEGAARPLPRFNSVPLTDTGHERQSEGSFSPQLQESVFHLLVPSVILVLLAVGGLLFYRWRRRSHQEPQRADSPLEQPEGSPLTQDDRQVELPV
modifications: heterodimer short/long clone
notes: one chain of short clone (amino acid 4 to 158) and one chain of long clone 221F
For B1, the specific activity (NFS-60 cells; calculated using the peak fraction of preparative Phenyl-HPLC) was 8.0×10^7 units/mg and the “biological activity of heterodimer compared to the two homodimers” value (NFS-60 cells; refolded dimers, SE-HPLC (72 hr of refolding) or Phenyl-HPLC fractions) was “fully biologically active in vitro”.

B2: M-CSFαNΔ3CΔ158 H9A, H15A/M-CSFβNΔ3CΔ221C157S, C159S heterodimer: one subunit of M-CSFα NΔ3CΔ158 H9A, H15A and one subunit of M-CSFβ NΔ3CΔ221 C157S, C159S (protein, UniProt P09603 33-554, looked up, variant H9A H15A C157S C159S)
Macrophage colony-stimulating …: EEVSEYCSAMIGSGALQSLQRLIDSQMETSCQITFEFVDQEQLKDPVCYLKKAFLLVQDIMEDTMRFRDNTPNAIAIVQLQELSLRLKSCFTKDYEEHDKACVRTFYETPLQLLEKVKNVFNETKNLLDKDWNIFSKNCNNSFAECSSQDVVTKPDSNSLYPKAIPSSDPASVSPHQPLAPSMAPVAGLTWEDSEGTEGSSLLPGEQPLHTVDPGSAKQRPPRSTCQSFEPPETPVVKDSTIGGSPQPRPSVGAFNPGMEDILDSAMGTNWVPEEASGEASEIPVPQGTELSPSRPGGGSMQTEPARPSNFLSASSPLPASAKGQQPADVTGTALPRVGPVRPTGQDWNHTPQKTDHPSALLRDPPEPGSPRISSLRPQGLSNPSTLSAQPQLSRSHSSGSVLPLGELEGRRSTRDRRSPAEPEGGPASEGAARPLPRFNSVPLTDTGHERQSEGSFSPQLQESVFHLLVPSVILVLLAVGGLLFYRWRRRSHQEPQRADSPLEQPEGSPLTQDDRQVELPV
modifications: heterodimer of truncated α and β forms
For B2, the “fold increase of IC50 compared to M-CSFα NΔ3CΔ158” value [1] was 30 fold, the IC50 [1] was about 0.5 nM and the “fold reduction in specific activity compared to parental M-CSF heterodimer” value (NFS-60 cells; Example 12) was 35 fold. The calculated specific activity (NFS-60 cells; Example 12, purified heterodimer) was 2.9×10^6 U/mg.

B3: M-CSF: macrophage colony stimulating factor, form not specified, treated with DEPC to modify histidines (protein, UniProt P09603 33-554, looked up)
Macrophage colony-stimulating …: EEVSEYCSHMIGSGHLQSLQRLIDSQMETSCQITFEFVDQEQLKDPVCYLKKAFLLVQDIMEDTMRFRDNTPNAIAIVQLQELSLRLKSCFTKDYEEHDKACVRTFYETPLQLLEKVKNVFNETKNLLDKDWNIFSKNCNNSFAECSSQDVVTKPDCNCLYPKAIPSSDPASVSPHQPLAPSMAPVAGLTWEDSEGTEGSSLLPGEQPLHTVDPGSAKQRPPRSTCQSFEPPETPVVKDSTIGGSPQPRPSVGAFNPGMEDILDSAMGTNWVPEEASGEASEIPVPQGTELSPSRPGGGSMQTEPARPSNFLSASSPLPASAKGQQPADVTGTALPRVGPVRPTGQDWNHTPQKTDHPSALLRDPPEPGSPRISSLRPQGLSNPSTLSAQPQLSRSHSSGSVLPLGELEGRRSTRDRRSPAEPEGGPASEGAARPLPRFNSVPLTDTGHERQSEGSFSPQLQESVFHLLVPSVILVLLAVGGLLFYRWRRRSHQEPQRADSPLEQPEGSPLTQDDRQVELPV
modifications: DEPC-modified histidines
With B3 the “bioactivity after DEPC modification of histidines” value [2] was “significantly reduced bioactivity”.

B4: Q20A, V78K: double mutant of M-CSF, solvent accessible residues in central portion of helices A and C (protein, UniProt P09603 33-554, looked up, variant Q20A V78K)
Macrophage colony-stimulating …: EEVSEYCSHMIGSGHLQSLARLIDSQMETSCQITFEFVDQEQLKDPVCYLKKAFLLVQDIMEDTMRFRDNTPNAIAIKQLQELSLRLKSCFTKDYEEHDKACVRTFYETPLQLLEKVKNVFNETKNLLDKDWNIFSKNCNNSFAECSSQDVVTKPDCNCLYPKAIPSSDPASVSPHQPLAPSMAPVAGLTWEDSEGTEGSSLLPGEQPLHTVDPGSAKQRPPRSTCQSFEPPETPVVKDSTIGGSPQPRPSVGAFNPGMEDILDSAMGTNWVPEEASGEASEIPVPQGTELSPSRPGGGSMQTEPARPSNFLSASSPLPASAKGQQPADVTGTALPRVGPVRPTGQDWNHTPQKTDHPSALLRDPPEPGSPRISSLRPQGLSNPSTLSAQPQLSRSHSSGSVLPLGELEGRRSTRDRRSPAEPEGGPASEGAARPLPRFNSVPLTDTGHERQSEGSFSPQLQESVFHLLVPSVILVLLAVGGLLFYRWRRRSHQEPQRADSPLEQPEGSPLTQDDRQVELPV
With B4 the IC50 [1] was about 0.1 nM, the M-CSF receptor-binding ability [1] was “decreased” and the “fold decrease in binding affinity” value [1] was 5 fold. For the same molecule, the “fold lower specific biological activity than parental M-CSFα reference standard” value (NFS-60 cells; Example 11) was 8-10 fold and the specific biological activity (NFS-60 cells; Example 11) was 1.4×10^7 U/mg.

B5: H9A, H15A: M-CSF NΔ3CΔ158 with His 9 and His 15 mutated to Ala, refolded dimer (pTAF172-2) (protein, UniProt P09603 33-554, looked up, variant H9A H15A)
Macrophage colony-stimulating …: EEVSEYCSAMIGSGALQSLQRLIDSQMETSCQITFEFVDQEQLKDPVCYLKKAFLLVQDIMEDTMRFRDNTPNAIAIVQLQELSLRLKSCFTKDYEEHDKACVRTFYETPLQLLEKVKNVFNETKNLLDKDWNIFSKNCNNSFAECSSQDVVTKPDCNCLYPKAIPSSDPASVSPHQPLAPSMAPVAGLTWEDSEGTEGSSLLPGEQPLHTVDPGSAKQRPPRSTCQSFEPPETPVVKDSTIGGSPQPRPSVGAFNPGMEDILDSAMGTNWVPEEASGEASEIPVPQGTELSPSRPGGGSMQTEPARPSNFLSASSPLPASAKGQQPADVTGTALPRVGPVRPTGQDWNHTPQKTDHPSALLRDPPEPGSPRISSLRPQGLSNPSTLSAQPQLSRSHSSGSVLPLGELEGRRSTRDRRSPAEPEGGPASEGAARPLPRFNSVPLTDTGHERQSEGSFSPQLQESVFHLLVPSVILVLLAVGGLLFYRWRRRSHQEPQRADSPLEQPEGSPLTQDDRQVELPV
modifications: residues 4-158, dimer
In the case of B5, the IC50 [1] is reported as about 1000 nM, the M-CSF receptor-binding ability [1] is reported as “greatly decreased” and the “fold decrease in binding affinity” value [1] is reported as 50,000 fold. For the same molecule, the “fold reduction in biological activity versus parental M-CSF NΔ3CΔ158” value (NFS-60 cells; Example 10) was ~10,000 fold and the specific activity (NFS-60 cells; Example 10, purified refolded mutein dimers, same assay as parental reference) was 7.6×10^3 U/mg.
